In test [1] the target is Human CD16a/FcγRIIIa 158F (human) (UniProt P08637). Kind of test: SPR. (In SPR one partner is held on a chip, and binding of the other changes the refractive index at the surface.)
Test [2] concerns the target Human CD16a/FcγRIIIa 158V (human). Kind of test: SPR.

Human CD16a/FcγRIIIa 158V (human), sequence (P08637 17-208): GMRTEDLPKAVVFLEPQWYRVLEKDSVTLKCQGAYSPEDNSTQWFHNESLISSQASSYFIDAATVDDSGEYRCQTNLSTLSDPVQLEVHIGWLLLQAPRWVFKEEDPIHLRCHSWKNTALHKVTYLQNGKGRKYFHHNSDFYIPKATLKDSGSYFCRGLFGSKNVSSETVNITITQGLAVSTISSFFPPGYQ

For orientation: Kd means a measure of binding affinity in units of concentration. Turning to “P-mab (in-house made pertuzumab biosimilar) (antibody)”, the Kd in test [1] worked out at 2.71 µM; in test [2], 0.818 µM.

Regarding “T-mab (in-house made trastuzumab biosimilar) (antibody)”, the Kd in test [1] turned out to be 1.63 µM; in test [2], 0.311 µM.

Values taken from paper PMC6152455.
